Patent US20260256879A1, “COMBINATION THERAPY WITH MEK INHIBITORS FOR THE TREATMENT OF CANCER” (FUNDACIÓ PRIVADA INSTITUT D'INVESTIGACIÓ ONCOLÒGICA DE VALL …, priority 2023, published 2026)

System: SkMel28 cells
Assay: AlamarBlue cell viability, 5 days of treatment, alone or in combination; synergy by SynergyFinder 3.0 (ZIP)
Format: cell-based, human
Settings: SkMel28, 5 days, FIG. 1A
Protocol: Omomyc in Combination with MEK Inhibitors Acts Synergistically in Decreasing the Viability of Melanoma Cancer Cells Two human melanoma cell lines with mutations in BRAF (BRAF^V600E) (SkMel28 and SkMel37) were used. Cells were plated in 96 well plates and treated on the following day with increasing concentrations of Trametinib and Omomyc, alone or in combination. After 5 days of treatment, media was removed and AlamarBlue™ Cell Viability Reagent was added to each well, incubated for 3 hours until metabolized, and fluorescence was read with a microplate reader using an excitation between 530-560 and an emission at 590 nm.
Synergy was evaluated using SynergyFinder 3.0 web application derived from Ianevsky A et al. Nucleic Acids Res. 2022; 50(W1):W739-W743.
Synergy scores can be interpreted as the average excess response due to drug interactions. Synergy scores close to 0 give limited confidence in synergy or antagonism. So, when the synergy scores are: less than −10, the interaction between two drugs is likely to be antagonistic. From −10 to 10, the interaction between two drugs is likely to be additive. Greater than 10, the interaction between two drugs is likely to be synergistic.

B1: Omomyc: Mutated bHLHZip domain of Myc (E61T, E68I, R74Q, R75N); tested polypeptide is SEQ ID NO: 4, N-terminal methionine, produced in E. coli (protein)
chain: MTEENVKRRTHNVLERQRRNELKRSFFALRDQIPELENNEKAPKVVILKKATAYILSVQAETQKLISEIDLLRKQNEQLKHKLEQLRNSCA
modifications: N-terminal methionine
effect of single agent on viability of the cells: reduces the viability
